Experimental data taken from PMC12720783 (Protein Science : A Publication of the Protein Society, 2025).

B1: LcrV with a deletion of the N-terminal domain (domain or fragment)
chain: SKLREELAELTAELKIYSVIQAEINKHLSSGGTINIHDKSINLMDKNLYGYTDEEIFKASAEYKILEKMPQTTIQEGETEKKIVSIKNFLESEKKRTGALGNLKDSYSYNKDNNELSHFATTCSDKSRPLNDLVSQKTTQLSDITSRFNSAIEALNRFIQKYDSVMQRLLDDTSGK
B2: LcrG, full length (natural protein)
chain: MKSSHFDEYDKTLKQAELAIADSDHRAKLLQEMCADIGLTPEAVMKIFAGRSAEEIKPAERELLDEIKRQRERQPQHPYDGKRPRKPTMMRGQII

Experiments:
[1] = biological target: the molecule itself; test: […]; 50 mM NaCl, 30 mM phosphate buffer, 1 mM TCEP
LcrV, full length = LcrV, full length (Yersinia pseudotuberculosis, UniProt P23994 1-326); test: ITC; details: both partners purified
[2] = biological target: LcrV with a deletion of the N-terminal 23 residues (Yersinia pseudotuberculosis, UniProt P23994 24-326); test: ITC; […] ([…]) […] ([…]) […]; 25°C; 30 mM phosphate buffer, 50 mM NaCl, 1 mM TCEP, pH 7.0; details: both partners purified
[3] = biological target: B1; test: as above; details: both partners purified

Row | Binder | stoichiometry N [1] | Kd (LcrV, full length) [nM] | Kd [2] [nM] | Kd [3] [nM]
1 | B1 | 3 | – | – | –
2 | B2 | – | 127 ± 63 | 54 ± 8.8 | ≤ 10
